Here are results for four molecules from patent US20150329642A1 (Genmab, published 2015).

One test concerns the target T1, cMetECDHis (human, UniProt P08581 25-932, limits assumed, biotinylated in the cross-block ELISA of Example 17).
T1 construct: Expressed in HEK-293F cells; also called soluble cMetECDHis; biotinylated cMetECDHis
In words: cross-block ELISA; competitor 005. On the procedure: First, the optimal coating concentrations of the tested anti-c-Met antibodies and the optimal cMetECDHis concentration were determined. Therefore, ELISA wells were coated overnight at 4° C. with anti-c-Met HuMabs serially diluted in PBS (8 μg/mL in 2-fold dilutions). Next, the ELISA wells were washed with PBST (PBS supplemented with 0.05% Tween-20 [Sigma-Aldrich, Zwijndrecht, The Netherlands]) and blocked for one hour at room temperature (RT) with PBSTC (PBST supplemented 2% [v/v] chicken serum [Gibco, Paisley, Scotland]). Subsequently, the ELISA wells were washed with PBST and incubated for one hour at RT with biotinylated cMetECDHis serially diluted in PBSTC (1 μg/mL in 2-fold dilutions). Unbound biotinylated cMetECDHis was washed away with PBST, and bound biotinylated cMetECDHis was incubated for one hour at RT with 0.1 μg/mL Streptavidin-poly-HRP (Sanquin, Amsterdam, The Netherlands) diluted in PBST.
ELISA wells were coated with anti-c-Met antibody at a sub-optimal dose as described above. After blocking of the ELISA wells, they were incubated with the predetermined concentration of biotinylated cMetECDHis in the presence of an excess of anti-c-Met antibody. The reaction was developed as described above. Residual binding was expressed as a percentage relative to the binding observed in the absence of competitor antibody.
On the technique in general: An ELISA detects its analyte on a solid surface through an enzyme-linked reagent.

Test [1] deals with T2, human c-Met, membrane-bound on cells (human, UniProt P08581 25-1390).
T2 construct: whole, on cells; A431 cells carry on average 30,000 copies of c-Met per cell (Qifi); also called c-Met expressed on A431 cells; c-Met on A549 cells
In words: flow cytometry on A431 cells (PE goat anti-human IgG); bottom panel. On the procedure: The binding of anti-c-Met antibodies and monovalent forms thereof (also termed “UniBody molecules” herein, see Example 5) to A431 cells expressing membrane-bound c-Met (purchased at ATCC, CRL-1555) was tested using flow cytometry (FACS Canto II, BD Biosciences). […] Binding of anti-c-Met antibodies and UniBody molecules was detected using a Phycoerythrin-conjugated goat-anti-human IgG antibody (Jackson). IgG1-5D5 was used as positive control antibody, and HuMab-KLH was used as isotype control antibody. EC₅₀ values were determined by means of non-linear regression (sigmoidal dose-response with variable slope) using GraphPad Prism V4.03 software (GraphPad Software, San Diego, Calif., USA).
Also maximum binding levels were unchanged between IgG1's and UniBody molecules. For antibodies 005, 006, 008, 035, 045 and 058, on the other hand, a more than 2-fold […] as well as a decrease in maximum binding level was observed when comparing IgG1 with their UniBody counterpart. This was most likely due to the […] (Kd) of these antibodies (see Example 14).
(Flow cytometry measures light scatter and fluorescence of single cells or particles in a stream.)

A further test concerns the target T3, cMetSEMA-567His8 (human, UniProt P08581 25-567, limits assumed).
T3 construct: In the TR-FRET assay detected by anti-6xhis Europium3+; also called cMetSEMAHis; SEMA domain of c-Met; not shown: C-terminal His tag; the text says His9, the construct name says His8
In words: TR-FRET; displacement of AlexaFluor-647-HGF from cMetSEMA-567His8. The procedure:
Therefore, the interaction of anti-c-Met antibodies with the SEMA domain of the c-Met receptor was studied using TR-FRET technology. […] The mean fluorescent intensity at 665 nm was measured on the EnVision 2101 Multilabel reader (PerkinElmer).
A 4-fold serial dilution of unlabeled anti-c-Met antibody ranging from 0.49-8000 ng/mL was tested. After overnight incubation at 4° C. in the dark, mean fluorescence intensity at 665 nm was measured using the EnVision 2101 Multilabel reader applying the following settings: Lance/Delfia dual mirror, emission filter 615-665 nm, excitation filter 320 nm, delay time 60 μs, window 100 μs, 100 flashes, 2000 μs per cycle and bidirectional row-by-row reading. To determine IC₅₀ values, the binding curves were analyzed with non-linear regression (sigmoidal dose-response with variable slope) using GraphPad Prism V4.03 software (GraphPad Software, San Diego, Calif., USA).
In general terms: In TR-FRET formats the signal depends on donor and acceptor labels being close together.

B1: anti-c-Met HuMab 098 (IgG1) (antibody, V domains shown)
VH: QVQLVQSGAEVKKPGASVKVSCKASGYTFTNFGISWVRQAPGQGLEWMGWISAFNGHTDYSQKVQGRVTMTTDTSTSTAYMELRSLRSDDTAVFYCARSHYYGSGSPFDYWGQGTLVTVSS
VL: DIQMTQSPSSLSASVGDRVTITCRASQGISNWLAWYQQKPEKAPKSLIYAASSLQSGVPSRFSGSGSGTDFTLTISSLQPEDFATYYCHQYKSYPWTFGQGTKVEIK
notes: also called TH1016-098; PC1016-098
Regarding B1, the “residual binding, % of no competitor” value with cMetECDHis stood at 99.6%. In test [1], the EC50 – broadly, the midpoint of the concentration-response curve – stood at 0.9 nM. Moreover, in the test with cMetSEMA-567His8, the % inhibition (as a rule, the drop in the measured response relative to a control, in per cent) amounted to 98% and the IC50 (in general, the concentration at which inhibition is half-maximal) came out at 0.55 µg/mL.

B2: anti-c-Met HuMab 101 (IgG1) (antibody, V domains shown)
VH: QVQLVQSGGEVKKPGASVKVSCKASGYTFTRHGITWVRQAPGQGLEWMGWISADNGNTNYAQKFQDRVTMTTDTSTSTAYMELRSLRSDDTAVYFCARVFRYFDWLLPYFDYWGQGTLVTVST
VL: not shown
With B2, in the test with cMetECDHis, the “residual binding, % of no competitor” value turned out to be 91.5%. Moreover, it took 1.03 nM to reach a half-maximal effect in test [1] (EC50). Besides, in the test with cMetSEMA-567His8, the “% inhibition” value was determined as 96% and the IC50 is 0.53 µg/mL.

B3: IgG1-1016-069 (antibody, V domains shown)
VH: QVQLVQSGAEVKKPGASVKVSCETSGYTFTSYGISWVRQAPGHGLEWMGWISAYNGYTNYAQKLQGRVTMTTDTSTSTAYMELRSLRSDDTAVYYCARDLRGTNYFDYWGQGTLVTVSS
VL: DIQMTQSPSSVSASVGDRVTITCRASQGISNWLAWFQHKPGKAPKLLIYAASSLLSGVPSRFSGSGSGTDFTLTISSLQPEDFATYYCQQANSFPITFGQGTRLEIK
notes: also called clone 069; TH1016-069
On to B3, for which the “residual binding, % of no competitor” value in the test with cMetECDHis amounted to 102%. For the same molecule, in test [1], the EC50 was found to be 0.547 nM. Further, in the test with cMetSEMA-567His8, the “% inhibition” value amounted to 97% and the IC50 was 0.54 µg/mL.

B4: anti-c-Met HuMab 181 (IgG1) (antibody, V domains shown)
VH: QVQLVQSGAEVKKPGASVKVSCKASGYTFTSYGISWVRQAPGQGLEWMGWISTYNGYTNYAQKLQGRVTMTTDTSTSTAYMELRSLRSDDTAVYYCARDLRGTAYFDYWGQGTLVTVSS
VL: DIQMTQSPSSVSASVGDRVTITCRASQGISNWLAWYQHKPGKAPKLLIYAASSLLSGVPSRFSGSGSGTDFTLTISSLQPEDFATYYCQQANSFPITFGQGTRLEIK
notes: also called TH1016-181; PC1016-181
Regarding B4, in the test with cMetECDHis, the “residual binding, % of no competitor” value was 95.9%. The EC50 in test [1] was found to be 0.679 nM. Also, in the test with cMetSEMA-567His8, the “% inhibition” value worked out at 93% and the IC50 is 0.34 µg/mL.
